1 substance from US20210355215A1 can be followed below.

This experiment concerns the target BsAb CD3-BCMA (human). Nature of the experiment: 1 mL CH1-XL column, purified BsAb 5 mg/ml load, residence time 4 min, 10% breakthrough.

Sequence of BsAb CD3-BCMA (human) (heavy, as listed by the source, chain 1 of 3): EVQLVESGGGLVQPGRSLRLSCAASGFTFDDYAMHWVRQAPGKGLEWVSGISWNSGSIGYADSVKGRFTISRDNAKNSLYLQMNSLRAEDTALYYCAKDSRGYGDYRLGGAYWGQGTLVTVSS
Sequence of BsAb CD3-BCMA (human) (light, as listed by the source, chain 2 of 3): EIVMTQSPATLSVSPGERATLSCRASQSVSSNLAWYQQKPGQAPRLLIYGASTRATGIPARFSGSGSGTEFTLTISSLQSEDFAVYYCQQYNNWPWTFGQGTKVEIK
Sequence of BsAb CD3-BCMA (human) (heavy, as listed by the source, chain 3 of 3): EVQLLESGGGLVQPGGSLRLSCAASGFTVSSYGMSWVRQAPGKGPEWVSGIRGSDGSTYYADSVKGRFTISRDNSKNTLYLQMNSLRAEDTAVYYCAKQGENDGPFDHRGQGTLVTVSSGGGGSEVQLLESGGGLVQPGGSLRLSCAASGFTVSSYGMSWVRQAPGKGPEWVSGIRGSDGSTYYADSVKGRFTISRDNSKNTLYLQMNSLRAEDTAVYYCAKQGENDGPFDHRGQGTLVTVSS

As to “CaptureSelect CH1-XL affinity resin ligand (13 kDa llama heavy chain antibody fragment, Ig heavy chain CH1-specific nanobody) (VHH)”, the dynamic binding capacity worked out at 9.3 mg/mL.
